Experimental findings from patent publication US20210347873A1 (SHANGHAI PHARMAEXPLORER, published 2021) are described below.

B1: 97A3C2H4 (antibody, V domains shown)
VH: EVKLVESGGGLVQPGGSLKLSCAASGFTFSTYTMSWVRQTPEKRLEWVAYISYGGGSTSYPDTVKGRFTISRDNAKNTLYLQMSSLKSEDTAIYYCTRHVTVVENSMDYWGQGTSVTVSS
VL: DILLTQSPDILSVSPGERVSFSCRASQSIGTSIHWYQQRTNGSPRLLIKYVSESFSGTPSRFSGSGSGTAFTLTINSVESEDIADYYCQQTHSWPWTFGGGTKLEIK
notes: Mouse hybridoma monoclonal antibody purified on Protein G
B2: 2-1G11 (antibody, V domains shown)
VH: EVQLVESRGGVVQPGRSLRLSCAASGFTFSSYGMHWVRQAPGKGLEWVAVISYDGSNKYYADSVKGRFTISRDNSKNTLYLQMNSLRAEDAAVYYCARDRVDILTGYSIYGMDVWGQGTTVTVSS
VL: EIVMTQSPATLSLSPGERATLSCRASQSVSSYLAWYQQKPGQAPRLLIYDASKRATGIPARFSGSGSGTDFTLTISSLEPEDFAVYYCQQRSNWPLTFGGGTKVEIK
notes: From a human naive scFv phage library; also called human BLyS antibody 2-1G11
B3: L9G7 (antibody, V domains shown)
VH: QIQLVQSGAEVKKPGASVKVSCKASGYTFTSYGISWVRQAPGQGLEWMGWISAYNGNTNYAQKLQGRVTMTTDTSTSTAYMELRSLRSDDTAVYYCARTYYDILTGYYYYGMDVWGQGTTVTVSS
VL: B2 VL with M4L, A9G, A25T, S30D, S31T, K53N
notes: From a human naive scFv phage library; also called human BLyS antibody L9G7
B4: L1D12 (antibody, V domains shown)
VH: QVQLVQSGGGLVQPGGSLRLSCAASGFTVSSNYMSWVRQAPGKGLEWVSVIYSGGSTYYADSVKGRFTISRDNSKNTLYLQMNSLRAEDTAVYYCARGFHDILTGYGMDVWGQGTTVTVSS
VL: SSELTQDPAVSVALGQTVRITCQGDSLRNYYAGWYQQKPGQAPVLVIYGKNNRPSGIPDRFSGSSSGNTASLTITGTQAEDEADYYCSSRDNSGTHLVEFGGGTKLTVL
notes: From a human naive scFv phage library; also called human BLyS antibody L1D12; LID12

Substitutions are numbered along the chain they refer to.

One assay deals with mouse BLyS protein (mouse, UniProt Q9WU72 69-309). Briefly: cell-based or functional assay.
mouse BLyS protein, sequence (Q9WU72 69-309): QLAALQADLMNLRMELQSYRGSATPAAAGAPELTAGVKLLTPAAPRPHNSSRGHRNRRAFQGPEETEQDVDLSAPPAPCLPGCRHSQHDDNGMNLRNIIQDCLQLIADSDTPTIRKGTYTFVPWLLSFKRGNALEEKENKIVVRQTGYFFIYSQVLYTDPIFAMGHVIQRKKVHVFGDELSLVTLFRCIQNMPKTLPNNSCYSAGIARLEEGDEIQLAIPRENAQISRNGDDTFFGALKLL
As for B1, the “mouse B lymphocyte proliferation (OD450 nm), antibody 0 nM” value was 2160 OD450 nm; the “mouse B lymphocyte proliferation (OD450 nm), antibody 0.000256 nM” value was found to be 2210 OD450 nm; the “mouse B lymphocyte proliferation (OD450 nm), antibody 0.00128 nM” value was 2200 OD450 nm; the “mouse B lymphocyte proliferation (OD450 nm), antibody 0.0064 nM” value was 2250 OD450 nm. Further, the “mouse B lymphocyte proliferation (OD450 nm), antibody 0.032 nM” value was 2370 OD450 nm; the “mouse B lymphocyte proliferation (OD450 nm), antibody 0.16 nM” value was 2300 OD450 nm; the “mouse B lymphocyte proliferation (OD450 nm), antibody 0.8 nM” value is 2410 OD450 nm; the “mouse B lymphocyte proliferation (OD450 nm), antibody 4 nM” value was 2430 OD450 nm. The “mouse B lymphocyte proliferation (OD450 nm), antibody 20 nM” value amounted to 2400 OD450 nm and the “mouse B lymphocyte proliferation (OD450 nm), antibody 100 nM” value worked out at 2320 OD450 nm.

Take B2: the “mouse B lymphocyte proliferation (OD450 nm), antibody 0 nM” value was 2320 OD450 nm; the “mouse B lymphocyte proliferation (OD450 nm), antibody 0.000256 nM” value was determined as 2450 OD450 nm; the “mouse B lymphocyte proliferation (OD450 nm), antibody 0.00128 nM” value was 2560 OD450 nm; the “mouse B lymphocyte proliferation (OD450 nm), antibody 0.0064 nM” value worked out at 2610 OD450 nm. Moreover, the “mouse B lymphocyte proliferation (OD450 nm), antibody 0.032 nM” value was determined as 2470 OD450 nm; the “mouse B lymphocyte proliferation (OD450 nm), antibody 0.16 nM” value was 2750 OD450 nm; the “mouse B lymphocyte proliferation (OD450 nm), antibody 0.8 nM” value came out at 2820 OD450 nm; the “mouse B lymphocyte proliferation (OD450 nm), antibody 4 nM” value came out at 2460 OD450 nm. Moreover, the “mouse B lymphocyte proliferation (OD450 nm), antibody 20 nM” value was determined as 2680 OD450 nm and the “mouse B lymphocyte proliferation (OD450 nm), antibody 100 nM” value was found to be 2490 OD450 nm.

For B3, the “mouse B lymphocyte proliferation (OD450 nm), antibody 0 nM” value is 2100 OD450 nm; the “mouse B lymphocyte proliferation (OD450 nm), antibody 0.000256 nM” value was determined as 2430 OD450 nm; the “mouse B lymphocyte proliferation (OD450 nm), antibody 0.00128 nM” value was 2480 OD450 nm; the “mouse B lymphocyte proliferation (OD450 nm), antibody 0.0064 nM” value was determined as 2460 OD450 nm. The “mouse B lymphocyte proliferation (OD450 nm), antibody 0.032 nM” value came out at 2340 OD450 nm; the “mouse B lymphocyte proliferation (OD450 nm), antibody 0.16 nM” value was 2260 OD450 nm; the “mouse B lymphocyte proliferation (OD450 nm), antibody 0.8 nM” value stood at 640 OD450 nm; the “mouse B lymphocyte proliferation (OD450 nm), antibody 4 nM” value amounted to 308 OD450 nm. For the same molecule, the “mouse B lymphocyte proliferation (OD450 nm), antibody 20 nM” value amounted to 243 OD450 nm and the “mouse B lymphocyte proliferation (OD450 nm), antibody 100 nM” value is 221 OD450 nm.

Take B4: the “mouse B lymphocyte proliferation (OD450 nm), antibody 0 nM” value turned out to be 2340 OD450 nm; the “mouse B lymphocyte proliferation (OD450 nm), antibody 0.000256 nM” value amounted to 2450 OD450 nm; the “mouse B lymphocyte proliferation (OD450 nm), antibody 0.00128 nM” value amounted to 2610 OD450 nm; the “mouse B lymphocyte proliferation (OD450 nm), antibody 0.0064 nM” value turned out to be 2500 OD450 nm. Also, the “mouse B lymphocyte proliferation (OD450 nm), antibody 0.032 nM” value was 2460 OD450 nm; the “mouse B lymphocyte proliferation (OD450 nm), antibody 0.16 nM” value amounted to 2520 OD450 nm; the “mouse B lymphocyte proliferation (OD450 nm), antibody 0.8 nM” value amounted to 2410 OD450 nm; the “mouse B lymphocyte proliferation (OD450 nm), antibody 4 nM” value turned out to be 2560 OD450 nm. Moreover, the “mouse B lymphocyte proliferation (OD450 nm), antibody 20 nM” value amounted to 2460 OD450 nm and the “mouse B lymphocyte proliferation (OD450 nm), antibody 100 nM” value stood at 2450 OD450 nm.

The target of a further assay is T1, human BLyS (full length, arginine to histidine at position 132) on CHO-K1 cells (human, UniProt Q9Y275 1-285).
T1 construct: also called hBLyS; CHO-K1 hBLyS
T1 sequence (Q9Y275 whole entry R130H): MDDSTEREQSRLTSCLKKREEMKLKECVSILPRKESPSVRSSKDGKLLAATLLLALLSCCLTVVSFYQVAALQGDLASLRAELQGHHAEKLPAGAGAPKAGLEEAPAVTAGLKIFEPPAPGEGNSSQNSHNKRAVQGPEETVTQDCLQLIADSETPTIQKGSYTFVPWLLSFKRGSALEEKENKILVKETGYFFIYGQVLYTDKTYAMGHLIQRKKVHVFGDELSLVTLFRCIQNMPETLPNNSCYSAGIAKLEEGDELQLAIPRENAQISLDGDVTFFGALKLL
The assay is described as follows: flow cytometry, CHO-K1 hBLyS cells, antibody 0 nM.
Take B1: the MFI is 31.2 MFI.

The molecule B2 displayed an MFI of 186 MFI.

Consider B3, for which the MFI worked out at 101 MFI.

With B4, the MFI came out at 101 MFI.

The next assay has as its target T1, human BLyS (full length, arginine to …). The assay is described as follows: flow cytometry, CHO-K1 hBLyS cells, antibody 13.3 nM. Background: A flow cytometer gives signals particle by particle.
In turn, B1 came in with an MFI of 460 MFI.

Take B2: the MFI stood at 633 MFI.

As to B3, the MFI turned out to be 630 MFI.

For the molecule B4, the MFI came to 522 MFI.

A further assay has the same target. Briefly: flow cytometry, CHO-K1 hBLyS cells, antibody 0.00427 nM.
Turning to B1, the MFI came to 44 MFI.

Take B2: the MFI was found to be 107 MFI.

Molecule B3 displayed an MFI of 51.6 MFI.

As for B4, the MFI amounted to 54.4 MFI.

In a further assay the target is T2, cynomolgus BLyS (full length, arginine to histidine at position 132) on CHO-K1 cells (cynomolgus, UniProt Q9Y275 1-285 (human entry)).
T2 construct: also called cyno BLyS; CHO-K1 cynoBLyS
T2 chain: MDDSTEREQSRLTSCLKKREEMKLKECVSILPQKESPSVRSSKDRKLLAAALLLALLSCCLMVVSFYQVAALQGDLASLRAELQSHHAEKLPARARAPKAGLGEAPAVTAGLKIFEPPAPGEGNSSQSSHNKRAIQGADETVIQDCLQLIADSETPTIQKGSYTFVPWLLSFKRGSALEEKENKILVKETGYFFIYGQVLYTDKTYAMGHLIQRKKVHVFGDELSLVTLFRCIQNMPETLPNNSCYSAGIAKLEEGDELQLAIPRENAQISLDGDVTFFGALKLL
Briefly: flow cytometry, CHO-K1 cynoBLyS cells, antibody 13.3 nM.
Take B1: the MFI stood at 943 MFI.

The molecule B2 gave an MFI of 1450 MFI.

As to B3, the MFI was 1280 MFI.

B4 showed an MFI of 1130 MFI.

In the next assay the target is T2, cynomolgus BLyS (full length, arginine …). The assay is described as follows: flow cytometry, CHO-K1 cynoBLyS cells, antibody 66.7 nM.
Consider B1, for which the MFI came out at 987 MFI.

For the molecule B2, the MFI came out at 1460 MFI.

B3 yielded an MFI of 1340 MFI.

Regarding B4, the MFI amounted to 1180 MFI.

The target is the same in a further assay. Briefly: flow cytometry, CHO-K1 cynoBLyS cells, antibody 0.534 nM.
Regarding B1, the MFI was determined as 682 MFI.

In the case of B2, the MFI stood at 1400 MFI.

Consider B3, for which the MFI stood at 1010 MFI.

On to B4, for which the MFI worked out at 900 MFI.

Another assay shares this target. Briefly: flow cytometry, CHO-K1 cynoBLyS cells, antibody 0.0213 nM.
In the case of B1, the MFI is 120 MFI.

With B2, the MFI was 332 MFI.

B3 displayed an MFI of 143 MFI.

Take B4: the MFI worked out at 135 MFI.

The target is the same in the next assay. Briefly: flow cytometry, CHO-K1 cynoBLyS cells, antibody 0.00427 nM.
Molecule B1 came in with an MFI of 44.3 MFI.

B2 had an MFI of 176 MFI.

For the molecule B3, the MFI was found to be 63.5 MFI.

In the case of B4, the MFI worked out at 66.7 MFI.
